# B1: Methanocaldococcus jannaschii fumarate hydratase α-subunit (enzyme)
# chain: KISDVVVELFREAAIYLPEDVKNALEEAYKKESSEISKNTLKAIIENNKIAEETQVPLCQDTGVPIVFLKIGKNINSSEIMKIIEEIKEGVKKATEEVPLRPNVVHPLTRENFKTNVGLNSPFINIEFDESLDREIEIIAFPKGAGSENMSALKMLKPSDGIEGIKNFVLETIANAGGKPCPPIVVGIGIGGTADVALKLAKKALLRKIGERHRDKEIANLEKELLEKINSLGIGAMGLGGDITALDVFIEIAGCHTASLPVGICIQCWADRRAIKRIKLDAKL
# B2: Selenomethionine incorporated Methanocaldococcus jannaschii fumarate hydratase α-subunit (of Se-MjFHαβ) (enzyme)
# chain: B1 chain
# modifications: selenomethionine incorporated (eleven selenium atoms per functional dimer)
# B3: Methanocaldococcus jannaschii fumarate hydratase β-subunit (enzyme)
# chain: MEYTFNKLTKKDVKKLKVGDIVYLNGKIYTARDEAHLKIIEMLKSNEKLPFDLNESIIYHAGPIMKKVNDSWVCVSIGPTTSARMNDVEEEFIKLTNISAIVGKGGMKKELLKTFEDYGVVYLAAPGGCAALLANSVKRVDNVYFLDELGMPEAVWELEVNNFGPLIVAMDSHGNSIYEEVNKKVYEKLNELIGL
# Assays:
# SEC = target: the molecule itself; test: SEC
# crystal structure = target: the molecule itself; test: crystal structure
# [1] = target: B1; test: ITC
binder,measurement,setting,value
B1,stoichiometry N,SEC,2
B2,binding result,crystal structure,binds
B3,Kd,[1],595 ± 19 nM
